The test deals with T1, NaV1.7 (Homo sapiens, UniProt Q15858).
T1 construct: expressed in transfected cells; host or cells: HEK293
In words: Whole-cell patch clamp, HEK293-NaV1.7 cells. It is filed as cell-based. (In patch-clamp work, channel activity is measured electrically.)

The mark [1] stands for this setting: competitive screening clones, read-out: IC50 ± SEM of NaV1.7-selective Ab-ASF.
[2] abbreviates: non-competitive screening clones, 15 min incubation, read-out: IC50 ± SEM (nM) of Ab-PEG3-ASF in inhibiting NaV1.7.

Several values for one entry are separate records, joined by “and”; a condition that tells them apart may be missing. Equal entries are not always repeated. Where two headings read alike, the source gives them in different places.

T1 sequence (Q15858 whole entry): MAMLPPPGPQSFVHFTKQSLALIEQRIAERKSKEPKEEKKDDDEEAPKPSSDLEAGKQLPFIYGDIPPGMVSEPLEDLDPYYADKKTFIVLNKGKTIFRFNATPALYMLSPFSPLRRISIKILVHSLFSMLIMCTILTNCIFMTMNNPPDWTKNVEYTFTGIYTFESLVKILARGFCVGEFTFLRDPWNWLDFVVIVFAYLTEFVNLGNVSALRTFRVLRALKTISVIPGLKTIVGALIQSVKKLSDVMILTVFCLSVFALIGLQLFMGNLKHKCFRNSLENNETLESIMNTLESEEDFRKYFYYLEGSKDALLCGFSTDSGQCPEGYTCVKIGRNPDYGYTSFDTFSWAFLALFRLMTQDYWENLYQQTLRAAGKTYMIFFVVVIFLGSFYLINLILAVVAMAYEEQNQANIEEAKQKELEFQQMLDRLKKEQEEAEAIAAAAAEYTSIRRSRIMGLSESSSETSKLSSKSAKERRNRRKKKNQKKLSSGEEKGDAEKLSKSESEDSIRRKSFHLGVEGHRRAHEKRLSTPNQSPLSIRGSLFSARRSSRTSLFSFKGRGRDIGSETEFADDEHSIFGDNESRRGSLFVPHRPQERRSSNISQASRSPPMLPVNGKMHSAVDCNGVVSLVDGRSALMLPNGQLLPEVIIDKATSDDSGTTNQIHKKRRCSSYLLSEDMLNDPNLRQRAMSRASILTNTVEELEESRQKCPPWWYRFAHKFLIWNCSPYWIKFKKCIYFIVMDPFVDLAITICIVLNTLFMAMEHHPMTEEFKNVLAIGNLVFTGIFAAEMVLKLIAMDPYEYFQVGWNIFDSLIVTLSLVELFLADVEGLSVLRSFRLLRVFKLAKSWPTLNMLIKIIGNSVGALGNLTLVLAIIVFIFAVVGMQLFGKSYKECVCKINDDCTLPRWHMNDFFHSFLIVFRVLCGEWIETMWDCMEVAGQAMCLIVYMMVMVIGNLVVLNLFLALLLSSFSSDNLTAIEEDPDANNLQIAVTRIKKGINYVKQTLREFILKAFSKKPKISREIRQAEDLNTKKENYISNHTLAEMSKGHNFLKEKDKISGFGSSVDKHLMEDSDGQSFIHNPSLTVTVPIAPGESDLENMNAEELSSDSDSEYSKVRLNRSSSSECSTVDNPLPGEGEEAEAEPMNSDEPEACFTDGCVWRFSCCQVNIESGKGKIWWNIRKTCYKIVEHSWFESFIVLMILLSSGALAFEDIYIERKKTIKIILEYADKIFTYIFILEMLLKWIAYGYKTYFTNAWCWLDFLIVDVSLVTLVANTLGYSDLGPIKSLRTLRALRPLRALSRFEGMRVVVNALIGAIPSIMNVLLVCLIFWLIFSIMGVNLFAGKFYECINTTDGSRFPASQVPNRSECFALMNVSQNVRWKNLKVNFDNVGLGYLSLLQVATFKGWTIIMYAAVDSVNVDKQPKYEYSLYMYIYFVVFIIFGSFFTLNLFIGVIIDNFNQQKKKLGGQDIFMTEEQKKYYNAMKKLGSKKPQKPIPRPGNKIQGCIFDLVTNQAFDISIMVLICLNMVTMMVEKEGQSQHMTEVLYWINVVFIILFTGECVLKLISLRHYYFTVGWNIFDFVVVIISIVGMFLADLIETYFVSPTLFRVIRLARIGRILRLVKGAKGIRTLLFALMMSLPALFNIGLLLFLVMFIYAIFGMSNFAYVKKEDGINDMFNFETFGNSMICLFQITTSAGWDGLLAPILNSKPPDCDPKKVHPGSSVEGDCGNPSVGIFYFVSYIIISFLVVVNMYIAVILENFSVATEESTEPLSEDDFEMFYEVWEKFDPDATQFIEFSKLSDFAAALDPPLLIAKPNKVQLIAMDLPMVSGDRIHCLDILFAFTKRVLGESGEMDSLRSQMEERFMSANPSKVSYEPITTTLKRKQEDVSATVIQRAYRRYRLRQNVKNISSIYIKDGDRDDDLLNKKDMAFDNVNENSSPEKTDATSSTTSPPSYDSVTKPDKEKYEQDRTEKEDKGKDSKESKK

B1: 15F9-PEG3-ASF: Ab-UAA 15F9 conjugated to ASF-PEG3-DBCO (conjugate)
VH: EVQLVESGGGLVQPGGSLRLSCAASGFTFSKFWMHWVRQAPGKGLEWVSSISSSSSYIYYADSVKGRFTISADTSKNTAYLQMNSLRAEDTAVYYCARDPISTGAFDIWGQGTLVTVSS
VL: DIQMTQSPSSLSASVGDRVTITCRASQSISSWLAWYQQKPGKAPKLLIYDASSLESGVPSRFSGSRSGTDFTLTISSLQPEDFATYYCQQXYTTPPTFGQGTKLEI
modifications: non-natural residues
notes: Ab-UAA 15F9 conjugated to ASF-PEG3-DBCO
Take B1: the “inhibitory activity against NaV1.7 at 10 nM (in words)” value (10 nM Ab-PEG3-ASF) is given as “essentially no inhibitory activity”.

B2: 15F7-PEG3-ASF: Ab-UAA 15F7 conjugated to ASF-PEG3-DBCO (conjugate)
VH: EVQLVESGGGLVQPGGSLRLSCAASGFTFSGHWMHWVRQAPGKGLEWVSAISGSGGSTYYADSVKGRFTISADTSKNTAYLQMNSLRAEDTAVYYCAREVTMVRGVTDAFDIWGQGTLVTVSS
VL: DIQMTQSPSSLSASVGDRVTITCRASQGISSDLGWYQQKPGKAPKLLIYDVSNVQTGVPSRFSGSRSGTDFTLTISSLQPEDFATYYCQQXYTTPPTFGQGTKLEI
modifications: non-natural residues
notes: Ab-UAA 15F7 conjugated to ASF-PEG3-DBCO
A word on the IC50: it is the concentration at which inhibition is half-maximal. B2: the “inhibition rate of NaV1.7 at 10 nM” value (10 nM Ab-PEG3-ASF) is on record as “about 60%”. The IC50 under setting [1] is 6.48 nM and 6.5 nM.

B3: 15C12-PEG3-ASF: Ab-UAA 15C12 conjugated to ASF-PEG3-DBCO (conjugate)
VH: EVQLVESGGGLVQPGGSLRLSCAASGFTFSGHWMHWVRQAPGKGLEWVSAISGSGGSTYYADSVKGRFTISADTSKNTAYLQMNSLRAEDTAVYYCARELTMASTTDAFDFWGQGTLVTVSS
VL: DIQMTQSPSSLSASVGDRVTITCQASQDISNSLNWYQQKPGKAPNLLIYATSNLQSGVPSRFSGSRSGTDFTLTISSLQPEDFATYYCQQXYTTPPTFGQGTKLEI
modifications: not fully specified; non-natural residues
notes: Ab-UAA 15C12 conjugated to ASF-PEG3-DBCO
As for B3, the IC50 under setting [1] is 0.0395 ± 0.00968 nM.

B4: 15A10-PEG3-ASF: Ab-UAA 15A10 conjugated to ASF-PEG3-DBCO (conjugate)
VH: EVQLVESGGGLVQPGGSLRLSCAASGFPFSGHWMHWVRQAPGKGLEWVSGISGTGATSHYADSVKGRFTISADTSKNTAYLQMNSLRAEDTAVYYCAREVITAASTDAFDLWGQGTLVTVSS
VL: DIQMTQSPSSLSASVGDRVTITCRASQSIGSSLHWYQQKPGKAPTVLIYAASSLQTGVPSRFSGSRSGTDFTLTISSLQPEDFATYYCQQXYTTPPTFGQGTKLEI
modifications: not fully specified; non-natural residues
notes: Ab-UAA 15A10 conjugated to ASF-PEG3-DBCO
With B4, under setting [1], the 50% inhibitory concentration (IC50) was determined as 0.138 ± 0.0414 nM.

B5: A4-PEG3-ASF: IgG1 Ab-UAA A4 conjugated with ASF-PEG3-DBCO (conjugate)
VH: EVQLVESGGGLVQPGGSLRLSCAASGFTFSGHWMHWVRQAPGKGLEWVSGISGSGGSTYYADSVKGRFTISADTSKNTAYLQMNSLRAEDTAVYYCARELTMATTTDAFDIWGQGTLVTVSS
VL: DIQMTQSPSSLSASVGDRVTITCQASQDIRNDLNWYQQKPGKAPKSLIYAASRLQSGVPSRFSGSRSGTDFTLTISSLQPEDFATYYCQQXYTTPPTFGQGTKLEI
modifications: non-natural residues
notes: IgG1 Ab-UAA A4 conjugated with ASF-PEG3-DBCO
With B5, under setting [2], the IC50 was found to be 1.22 ± 0.534 nM.

B6: H3-PEG3-ASF: IgG1 Ab-UAA H3 conjugated with ASF-PEG3-DBCO (conjugate)
VH: EVQLVESGGGLVQPGGSLRLSCAASGFTFSDYWISWVRQAPGKGLEWIGNVYYSGNAYYNPSLESRVTISADTSKNTAYLQMNSLRAEDTAVYYCARNTGFETLDNWGQGTLVTVSS
VL: DIQMTQSPSSLSASVGDRVTITCRASQSISSWLAWYQQKPGKAPNLLMYAASSLQSGVPSRFSGSRSGTDFTLTISSLQPEDFATYYCQQXYTTPPTFGQGTKLEI
modifications: non-natural residues
notes: IgG1 Ab-UAA H3 conjugated with ASF-PEG3-DBCO
As to B6, under setting [2], the half-maximal inhibitory concentration (IC50) amounted to 1.13 ± 0.191 nM.

These data come from patent US20260151499A1, “ANTIBODY DERIVATIVE AND USE THEREOF” (TSINGHUA UNIVERSITY, priority 2023, published 2026).
